Assay results taken from patent US20070021595A1.
Each block holds one binder with its values, some of them ahead of it.

Assays:
[1] = molecular target: HBV recombinant antigen GST-pre-S1(1-56) (hepatitis B virus); test: competitive ELISA, GST-pre-S1(1-56) on plate, COS7 supernatant
[2] = molecular target: HBV recombinant antigen GST-pre-S1(1-56) (hepatitis B virus); test: competitive ELISA, pre-S1 antigen in solution and on plate
[3] = molecular target: HBV recombinant antigen GST-pre-S1(1-56) (hepatitis B virus); test: competitive ELISA as in Test Example 2, purified antibody from CHO cells
[4] = molecular target: HBV recombinant antigen GST-pre-S1(1-56) (hepatitis B virus); test: competitive ELISA as in Test Example 2

Kd [1]: 11 nM
Kd [2]: 8.2 nM
B1: chimeric antibody chKR127 (wild type) (antibody, V domains shown)
VH: QVQLVQSGAEVKAPGASVKVSCKASGYTFTSAWMNWVRQAPGQGLEWMGRIYPSGGSTSYAQKFQGRVTMTADKSTSTVYMELSSLRSEDTAVYYCAREYRVARWGQGTLVTVSA
VL: DIVMTQTPLSLSVTPGQPASISCKSSQSLLYSNGKTYLNWLLQKPGQPPQRLIYLVSNRDSGVPDRFSGSGSGTDFTLKISRVEAEDVGVYYCVQGTHFPQTFGGGTKVEIK

Kd [3]: 0.16 nM
fold higher affinity than the control group [3]: 50 fold
B2: humanized antibody HuKR127 (antibody, V domains shown)
VH: QVQLVQSGAEVKAPGASVKVSCKASGYTFTSAWMNWVRQAPGQGLEWMGRIYPSGGSTSYAQKFQGRVTMTADKSTSTVYMELSSLRSEDTAVYYCAREYRVARWGQGTLVTVSA
VL: DIVMTQTPLSLSVTPGQPASISCKSSQSLLYSNGKTYLNWLLQKPGQPPQRLIYLVSNRDSGVPDRFSGSGSGTDFTLKISRVEAEDVGVYYCVQGTHFPQTFGGGTKVEIK

Kd [4]: 0.15 nM
fold higher affinity than HZKR127I [4]: 50 fold
B3: humanized antibody of humanized heavy chain HuKR127HC (HuKR127VH-VII) and humanized antibody HZKR127I light chain (antibody, part only; not given: Light chain, V domains shown, part only)
VH: QVQLVQSGAEVKAPGASVKVSCKASGYTFTSAWMNWVRQAPGQGLEWMGRIYPSGGSTSYAQKFQGRVTMTADKSTSTVYMELSSLRSEDTAVYYCAREYRVARWGQGTLVTVSA
